From patent publication US6579695B1 come the findings set out here.

Some results are limits rather than exact numbers.

In test [1] the target is Rhizobial NodF (wild-type) (Rhizobial).
The target of test [2] is Lactobacillus casei D-Alanyl carrier protein, apo-form (apo-Dcp) (Lactobacillus casei).
Test [3] addresses E. coli acyl carrier protein, apo-form (apo-ACP) (E. coli) (UniProt P0A6A8).
The target of test [4] is N-terminal hexa-histidine-tagged SrfB1 domain of surfactin synthetase, apo-form (His6-SrfB1) (Bacillus subtilis) (UniProt Q04747).

Turning to “E. coli holo-acyl carrier protein synthase (ACPS) (enzyme)”, in the test with ACP-NodF chimera, the [3H]phosphopantetheine incorporated, in vitro phosphopantetheinylation is 122000 dpm. Moreover, in test [1], the % conversion, in vitro phosphopantetheinylation with [3H]CoA was determined as 47%. For the same substance, the radioactivity incorporated into the protein fraction, 36 hour in vitro phosphopantetheinylation in test [2] came out at 1.04e+06. In test [3], the Km for apo-ACP, [3H]CoA radioassay is less than 1 µM and the apparent kcat of phosphopantetheinyl transfer, [3H]CoA radioassay came out at 0.167 s⁻¹.
For the substance Bacillus subtilis Sfp (enzyme), the [14C]-L-valine-holo-SrfB1 covalent complex formed after preincubation of apo-SrfB1 with Sfp and CoASH in test [4] was 14 fold.
